Laboratory results taken from the supplement of paper PMC7877785.
± gives the uncertainty stated by the source.

Experiment: self-splicing fitness, log relative to wild type (ln ratio); higher = more splicing; Tetrahymena group I intron in knt gene, E. coli kanamycin selection, DiMSum; sequences stand for … in CUCUCU…GGAGGGAAAAGUUAUCAGGCAUGCACCUGGUAGCUAGUCUUUAAACCAAUAGAUUGCAUCGGUUUAAAAGGCAAGACCGUCAAAUUGCGGGAAAGGGGUCAACAGCCGUUCAGUACCAAGUCUCAGGGGAAACUUUGAGAUGGCCUUGCAAAGGGUAUGGUAAUAAGCUGACGGACAUGGUCCUAACCACGCAGCCAAGUCCUAAGUCAACAGAUCUUCUGUUGAUAUGGAUGCAGUUCACAGACUAAAUGUCGGUCGGGGAAGAUGUAUUCUUCUCAUAAGAUAUAGUCGGACCUCUCCUUAAUGGGAGCUAGCGGAUGAAGUGAUGCAACACUGGAGCCGCUGGGAACUAAUUUGUAUGCGAAAGUAUAUUGAUUAGUUUUGGAGUACUCGUGGUCG
Outline: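 The eight P1ex-region nucleotides of an intron in the knt kanamycin-resistance gene on pET-22b(+) were all randomised and the library put into E. coli BL21(DE3). Six replicate transformations were grown overnight at 37°C or 30°C on LB agar with or without 25 μg/mL kanamycin, together with 100 μg/mL carbenicillin, 50 μM IPTG and 0.2% rhamnose. Colonies were pooled and amplicon-sequenced on an Illumina HiSeq 2500. Fitness from DiMSum is the error-weighted combination of wild-type-normalised replicate fold changes, kanamycin over none.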

| Sequence | self-splicing fitness (ln) (30 °C) | self-splicing fitness (ln) (37 °C) |
| --- | --- | --- |
| UUGGAGCAAUAUUACGUGCC | -3.24 ± 0.32 | -2.74 ± 0.36 |
| UUGGAGCAAUAUUACGUGGG | -2.17 ± 0.33 | – |
| UUGUAGCAAUAUUACGAAGA | -3.14 ± 0.33 | – |
| UUGUAGCAAUAUUACGAAUU | -1.53 ± 0.34 | -1.47 ± 0.38 |
| UUGUAGCAAUAUUACGACAC | -1.44 ± 0.22 | -1.48 ± 0.32 |
| UUGUAGCAAUAUUACGACGG | -0.599 ± 0.16 | -1.63 ± 0.17 |
| UUGUAGCAAUAUUACGAGAA | -1.54 ± 0.3 | -1.42 ± 0.3 |
| UUGUAGCAAUAUUACGAGAG | -2.07 ± 0.3 | – |
| UUGUAGCAAUAUUACGAGAU | -2.41 ± 0.33 | -2.32 ± 0.31 |
| UUGUAGCAAUAUUACGAGCC | -1.8 ± 0.27 | -1.78 ± 0.34 |
| UUGUAGCAAUAUUACGAGGG | – | -1.87 ± 0.4 |
| UUGUAGCAAUAUUACGAUCA | -0.608 ± 0.19 | -0.00925 ± 0.14 |
| UUGUAGCAAUAUUACGCCGA | -0.677 ± 0.23 | -0.628 ± 0.24 |
| UUGUAGCAAUAUUACGCCGG | -0.988 ± 0.16 | -0.179 ± 0.27 |
| UUGUAGCAAUAUUACGGAAA | -2.55 ± 0.39 | -1.2 ± 0.22 |
| UUGUAGCAAUAUUACGGCAA | -0.208 ± 0.12 | -0.27 ± 0.16 |
| UUGUAGCAAUAUUACGGCUA | – | 0.21 ± 0.5 |
| UUGUAGCAAUAUUACGGCUG | -2.35 ± 0.23 | -0.373 ± 0.22 |
| UUGUAGCAAUAUUACGGGAG | – | -2.84 ± 0.4 |
| UUGUAGCAAUAUUACGGUGA | -1.11 ± 0.093 | -0.318 ± 0.097 |
| UUGUAGCAAUAUUACGGUUU | -3.53 ± 0.24 | -1.79 ± 0.17 |
| UUGUAGCAAUAUUACGUACC | -2.08 ± 0.16 | -1.29 ± 0.17 |
| UUGUAGCAAUAUUACGUAGA | -2.75 ± 0.13 | -1.23 ± 0.12 |
| UUGUAGCAAUAUUACGUCUA | -0.856 ± 0.086 | -0.738 ± 0.11 |
| UUGUAGCAAUAUUACGUCUC | -3.54 ± 0.17 | -1.75 ± 0.18 |

| Sequence | self-splicing fitness (ln) (30 °C) | self-splicing fitness (ln) (37 °C) |
| --- | --- | --- |
| UUGUAGCAAUAUUACGUGAA | -1.87 ± 0.14 | -0.614 ± 0.14 |
| UUGUAGCAAUAUUACGUGUG | -1.28 ± 0.17 | -1.17 ± 0.11 |
| UUGUAGCAAUAUUACGUUGA | -2.95 ± 0.29 | -0.294 ± 0.19 |
| UUGUAGCAAUAUUACGUUGC | – | -2.29 ± 0.46 |
| UUGUAGCAAUAUUACGUUUC | -3.69 ± 0.46 | – |
| UUUAAGCAAUAUUACGAAAA | -0.789 ± 0.19 | -1.33 ± 0.2 |
| UUUAAGCAAUAUUACGACUA | 0.0508 ± 0.11 | -0.0992 ± 0.096 |
| UUUAAGCAAUAUUACGAGAA | -1.62 ± 0.33 | -0.298 ± 0.28 |
| UUUAAGCAAUAUUACGAGAC | -2.33 ± 0.48 | -2.63 ± 0.33 |
| UUUAAGCAAUAUUACGAGGA | -1.85 ± 0.13 | -1.22 ± 0.15 |
| UUUAAGCAAUAUUACGAUGG | -1.05 ± 0.11 | -0.525 ± 0.14 |
| UUUAAGCAAUAUUACGCAGA | -1.64 ± 0.16 | -1.93 ± 0.14 |
| UUUAAGCAAUAUUACGCAUC | -2.75 ± 0.36 | -2.25 ± 0.32 |
| UUUAAGCAAUAUUACGCCGA | -0.292 ± 0.13 | 0.0683 ± 0.15 |
| UUUAAGCAAUAUUACGCUCU | -1.26 ± 0.098 | -0.539 ± 0.11 |
| UUUAAGCAAUAUUACGGCAA | -0.171 ± 0.093 | 0.00377 ± 0.11 |
| UUUAAGCAAUAUUACGGCGA | 0.000504 ± 0.075 | 0.503 ± 0.1 |
| UUUAAGCAAUAUUACGGCUA | -0.342 ± 0.084 | 0.291 ± 0.1 |
| UUUAAGCAAUAUUACGGUCU | -2.5 ± 0.14 | -1.66 ± 0.15 |
| UUUAAGCAAUAUUACGUCAA | -1.43 ± 0.16 | -0.273 ± 0.14 |
| UUUAAGCAAUAUUACGUCCA | -1.08 ± 0.22 | -0.324 ± 0.27 |
| UUUAAGCAAUAUUACGUGCA | -1.06 ± 0.12 | -0.0552 ± 0.15 |
| UUUAAGCAAUAUUACGUUAA | -1.68 ± 0.23 | -1.38 ± 0.18 |
| UUUAAGCAAUAUUACGUUCA | -1.08 ± 0.11 | -0.403 ± 0.12 |
| UUUCAGCAAUAUUACGAACA | -0.771 ± 0.13 | 0.793 ± 0.22 |

| Sequence | self-splicing fitness (ln) (30 °C) | self-splicing fitness (ln) (37 °C) |
| --- | --- | --- |
| UUUCAGCAAUAUUACGAACU | -1.23 ± 0.092 | 0.244 ± 0.1 |
| UUUCAGCAAUAUUACGAAGA | -0.653 ± 0.24 | -0.0649 ± 0.25 |
| UUUCAGCAAUAUUACGAAGG | -2.18 ± 0.15 | -2.34 ± 0.28 |
| UUUCAGCAAUAUUACGAAUG | -0.511 ± 0.086 | -0.0774 ± 0.12 |
| UUUCAGCAAUAUUACGAGAU | – | -2.72 ± 0.48 |
| UUUCAGCAAUAUUACGAUAC | -2.17 ± 0.25 | -2.02 ± 0.26 |
| UUUCAGCAAUAUUACGAUAG | -0.323 ± 0.088 | -0.323 ± 0.11 |
| UUUCAGCAAUAUUACGAUCC | – | -0.887 ± 0.39 |
| UUUCAGCAAUAUUACGAUGC | -3.68 ± 0.28 | -2.01 ± 0.29 |
| UUUCAGCAAUAUUACGCCAA | -0.879 ± 0.18 | -0.379 ± 0.18 |
| UUUCAGCAAUAUUACGCGCA | -0.226 ± 0.11 | 0.569 ± 0.12 |
| UUUCAGCAAUAUUACGCUAC | -2.95 ± 0.22 | -2.39 ± 0.34 |
| UUUCAGCAAUAUUACGGACG | -0.348 ± 0.18 | 0.598 ± 0.23 |
| UUUCAGCAAUAUUACGGAGC | -3.25 ± 0.36 | -3.28 ± 0.43 |
| UUUCAGCAAUAUUACGGCAG | -0.779 ± 0.17 | 0.0981 ± 0.19 |
| UUUCAGCAAUAUUACGGCGG | -1.72 ± 0.15 | -0.833 ± 0.18 |
| UUUCAGCAAUAUUACGGCGU | -2.37 ± 0.14 | -0.454 ± 0.14 |
| UUUCAGCAAUAUUACGGGAU | -2.73 ± 0.12 | -1.64 ± 0.13 |
| UUUCAGCAAUAUUACGUAAG | -0.33 ± 0.087 | 0.394 ± 0.13 |
| UUUCAGCAAUAUUACGUCAA | -1.19 ± 0.1 | -0.056 ± 0.097 |
| UUUCAGCAAUAUUACGUCAC | -3.13 ± 0.43 | -2.86 ± 0.35 |
| UUUCAGCAAUAUUACGUGUC | -3.73 ± 0.18 | -2.04 ± 0.15 |
| UUUCAGCAAUAUUACGUUUA | -1.34 ± 0.11 | -0.334 ± 0.13 |
| UUUGAGCAAUAUUACGAAUU | -2.47 ± 0.23 | -2.01 ± 0.3 |
| UUUGAGCAAUAUUACGACUC | -2.58 ± 0.44 | -2.37 ± 0.41 |

| Sequence | self-splicing fitness (ln) (30 °C) | self-splicing fitness (ln) (37 °C) |
| --- | --- | --- |
| UUUGAGCAAUAUUACGAGGA | -3.62 ± 0.28 | -3.55 ± 0.46 |
| UUUGAGCAAUAUUACGAUGU | -3.05 ± 0.3 | -2.34 ± 0.39 |
| UUUGAGCAAUAUUACGCCGG | -2.04 ± 0.35 | 0.228 ± 0.38 |
| UUUGAGCAAUAUUACGCCUG | -2.85 ± 0.27 | -1.21 ± 0.38 |
| UUUGAGCAAUAUUACGCUAA | -1.08 ± 0.41 | – |
| UUUGAGCAAUAUUACGCUUC | -2.18 ± 0.31 | -2.53 ± 0.44 |
| UUUGAGCAAUAUUACGCUUU | – | -1.59 ± 0.22 |
| UUUGAGCAAUAUUACGGCAG | -1.6 ± 0.17 | -1.56 ± 0.21 |
| UUUGAGCAAUAUUACGGGAG | -3.55 ± 0.28 | -1.99 ± 0.19 |
| UUUGAGCAAUAUUACGGUGC | -2.74 ± 0.47 | -2.2 ± 0.33 |
| UUUGAGCAAUAUUACGUGAA | -1.97 ± 0.17 | -1.82 ± 0.17 |
| UUUGAGCAAUAUUACGUUCU | -3.55 ± 0.32 | -2.58 ± 0.25 |
| UUUUAGCAAUAUUACGAAAA | -1.13 ± 0.17 | -0.0479 ± 0.18 |
| UUUUAGCAAUAUUACGACAA | -0.409 ± 0.15 | -0.125 ± 0.17 |
| UUUUAGCAAUAUUACGAUUA | -0.349 ± 0.16 | 0.0391 ± 0.13 |
| UUUUAGCAAUAUUACGCACA | -0.201 ± 0.21 | -0.107 ± 0.19 |
| UUUUAGCAAUAUUACGCAUA | -1.52 ± 0.27 | -0.671 ± 0.21 |
| UUUUAGCAAUAUUACGCCGA | -1.15 ± 0.29 | -0.282 ± 0.32 |
| UUUUAGCAAUAUUACGCGGG | -0.691 ± 0.17 | -0.801 ± 0.17 |
| UUUUAGCAAUAUUACGCUAC | – | -2.79 ± 0.31 |
| UUUUAGCAAUAUUACGCUGG | -3.74 ± 0.39 | -2.88 ± 0.44 |
| UUUUAGCAAUAUUACGGAAU | – | -2.48 ± 0.4 |
| UUUUAGCAAUAUUACGGACC | -2.44 ± 0.4 | -0.175 ± 0.33 |
| UUUUAGCAAUAUUACGGAUA | -1.07 ± 0.33 | -1.21 ± 0.4 |
